Assay results as given in US20200010567A1 (NEURIMMUNE, published 2020).

How the values were obtained:
[1] = target: T1, (GA)15: H-CHHHHHH(GA)15-OH; assay: indirect ELISA, uncoupled peptide coated, antibody titrated [also D00010 FIG. 2H]
T1 construct: synthetic, not coupled to BSA; also called poly-GA DPR protein peptide
T1 peptide: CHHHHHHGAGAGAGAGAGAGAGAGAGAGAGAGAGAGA
Method: (§1) In brief, dipeptide repeat proteins were synthesized and purified by Schafer-N(Copenhagen, Denmark): (GA)₁₅: H-CHHHHHH(GA)₁₅-OH; (GP)₁₅: H-C(GP)₁₅-OH; (GR)₁₅: H-C(GR)₁₅-OH; (PA)₁₅: H-C(PA)₁₅-OH; (PR)₁₅: H—C(PR)₁₅-OH. 96-well microplates (Corning Incorporated, Corning, USA) were coated with dipeptide repeat protein peptides at a concentration of either 5 μg/ml or 20 μg/ml in coating buffer (15 mM Na₂CO₃, 35 mM NaHCO₃, pH 9.42). Non-specific binding sites were blocked for 1 h at room temperature with PBS/0.1% Tween®-20 containing 2% BSA (Sigma-Aldrich, Buchs, Switzerland). Primary antibodies were diluted to the indicated concentrations and incubated for 1 h at room temperature, followed by incubation with a donkey anti-human IgG Fcγ-specific antibody conjugated with HRP (Jackson ImmunoResearch Laboratories, Inc., West Grove, USA). Binding was determined by measurement of HRP activity in a standard colorimetric assay. EC₅₀ values were estimated by non-linear regression using GraphPad Prism software (San Diego, USA). The binding specificity and EC₅₀ of human-derived antibodies for C9orf72 dipeptide repeat protein peptides (GA)₁₅, (GP)₁₅, (GR)₁₅, (PA)₁₅ and (PR)₁₅ were determined by indirect ELISA.

(GP)15: H-C(GP)15-OH = target: T2, (GP)15: H-C(GP)15-OH; assay: indirect ELISA, uncoupled peptide coated, antibody titrated [also D00014 FIG. 3G]
T2 construct: synthetic, not coupled to BSA; also called poly-GP DPR protein peptide
T2 peptide: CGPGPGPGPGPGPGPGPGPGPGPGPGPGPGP
Method: as §1, with “(PR)₁₅: H—C(PR)₁₅-OH. DPR protein peptides were then conjugated via a bifunctional linker (SMCC) to bovine serum albumin (BSA). 96-well microplates” for “(PR)₁₅: H—C(PR)₁₅-OH. 96-well microplates”, “coated with BSA-coupled or -uncoupled dipeptide repeat” for “coated with dipeptide repeat”, “and incubated 1 h” for “and incubated for 1 h”, “Diego, USA).” for “Diego, USA). The binding specificity and EC₅₀ of human-derived antibodies for C9orf72 dipeptide repeat protein peptides (GA)₁₅, (GP)₁₅, (GR)₁₅, (PA)₁₅ and (PR)₁₅ were determined by indirect ELISA.”

[2] = target: T3, BSA-coupled (GA)15 DPR protein peptide (bovine, conjugated via a bifunctional linker (SMCC) to bovine serum albumin); assay: indirect ELISA, BSA-coupled peptide coated, antibody titrated [also D00013 FIG. 3E]
T3 construct: also called BSA-(GA)15
Method: as §1, with “(PR)₁₅: H—C(PR)₁₅-OH. DPR protein peptides were then conjugated via a bifunctional linker (SMCC) to bovine serum albumin (BSA). 96-well microplates” for “(PR)₁₅: H—C(PR)₁₅-OH. 96-well microplates”, “coated with BSA-coupled or -uncoupled dipeptide repeat” for “coated with dipeptide repeat”, “and incubated 1 h” for “and incubated for 1 h”, “Diego, USA).” for “Diego, USA). The binding specificity and EC₅₀ of human-derived antibodies for C9orf72 dipeptide repeat protein peptides (GA)₁₅, (GP)₁₅, (GR)₁₅, (PA)₁₅ and (PR)₁₅ were determined by indirect ELISA.”
Target sequence in this assay (P02769 25-607 limits assumed): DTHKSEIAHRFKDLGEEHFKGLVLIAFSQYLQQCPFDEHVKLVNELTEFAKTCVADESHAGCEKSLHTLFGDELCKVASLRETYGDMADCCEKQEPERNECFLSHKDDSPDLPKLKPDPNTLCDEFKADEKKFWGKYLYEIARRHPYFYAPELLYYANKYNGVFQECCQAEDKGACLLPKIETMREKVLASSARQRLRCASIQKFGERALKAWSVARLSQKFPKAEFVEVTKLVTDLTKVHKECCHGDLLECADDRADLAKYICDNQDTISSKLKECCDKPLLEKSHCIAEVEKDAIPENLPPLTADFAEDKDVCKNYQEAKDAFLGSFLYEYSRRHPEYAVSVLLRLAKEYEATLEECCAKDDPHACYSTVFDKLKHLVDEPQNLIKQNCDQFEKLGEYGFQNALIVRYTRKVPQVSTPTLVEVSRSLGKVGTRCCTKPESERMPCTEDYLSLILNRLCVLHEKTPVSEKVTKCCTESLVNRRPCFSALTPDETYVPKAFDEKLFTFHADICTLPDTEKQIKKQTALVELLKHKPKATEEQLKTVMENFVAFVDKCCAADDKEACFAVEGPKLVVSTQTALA

GR2: H-(GR)2HHHHHH-NH2 = target: T4, GR2: H-(GR)2HHHHHH-NH2; assay: indirect ELISA, His-tagged peptide coated at 50 ug/ml, antibody titrated [also D00026 FIG. 7L]
T4 peptide: H-GRGRHHHHHH-NH2
Method: 96-well microplates (Corning Incorporated, Corning, USA) were coated with dipeptide repeat protein peptides at a concentration of 50 μg/ml in coating buffer (15 mM Na₂CO₃, 35 mM NaHCO₃, pH 9.42). Non-specific binding sites were blocked for 1 h at room temperature with PBS/0.1% Tween®-20 containing 2% BSA (Sigma-Aldrich, Buchs, Switzerland). Primary antibodies were diluted to the indicated concentrations and incubated 1 h at room temperature, followed by incubation with a donkey anti-human IgG Fcγ-specific antibody conjugated with HRP (Jackson ImmunoResearch Laboratories, Inc., West Grove, USA). Binding was determined by measurement of HRP activity in a standard colorimetric assay. EC₅₀ values were estimated by non-linear regression using GraphPad Prism software (San Diego, USA).
High affinity binding was detected for poly-GA DPRs harboring 10 or 20 (GA)-repeats, reflected in an EC₅₀ in the subnanomolar or low nanomolar range (FIGS. 7A, 7C-7I).

[3] = target: T1, (GA)15: H-CHHHHHH(GA)15-OH; assay: indirect ELISA, uncoupled peptide coated, antibody titrated [also D00012 FIG. 3C]
Method: as §1, with “(PR)₁₅: H—C(PR)₁₅-OH. DPR protein peptides were then conjugated via a bifunctional linker (SMCC) to bovine serum albumin (BSA). 96-well microplates” for “(PR)₁₅: H—C(PR)₁₅-OH. 96-well microplates”, “coated with BSA-coupled or -uncoupled dipeptide repeat” for “coated with dipeptide repeat”, “and incubated 1 h” for “and incubated for 1 h”, “Diego, USA).” for “Diego, USA). The binding specificity and EC₅₀ of human-derived antibodies for C9orf72 dipeptide repeat protein peptides (GA)₁₅, (GP)₁₅, (GR)₁₅, (PA)₁₅ and (PR)₁₅ were determined by indirect ELISA.”

[4] = target: T3, BSA-coupled (GA)15 DPR protein peptide; assay: indirect ELISA, BSA-coupled peptide coated, antibody titrated [also D00012 FIG. 3C]
Method: as §1, with “(PR)₁₅: H—C(PR)₁₅-OH. DPR protein peptides were then conjugated via a bifunctional linker (SMCC) to bovine serum albumin (BSA). 96-well microplates” for “(PR)₁₅: H—C(PR)₁₅-OH. 96-well microplates”, “coated with BSA-coupled or -uncoupled dipeptide repeat” for “coated with dipeptide repeat”, “and incubated 1 h” for “and incubated for 1 h”, “Diego, USA).” for “Diego, USA). The binding specificity and EC₅₀ of human-derived antibodies for C9orf72 dipeptide repeat protein peptides (GA)₁₅, (GP)₁₅, (GR)₁₅, (PA)₁₅ and (PR)₁₅ were determined by indirect ELISA.”
Target sequence in this assay (P02769 25-607 limits assumed, chain 2 of 2, one chain of several): as the sequence (P02769 25-607 limits assumed) above

[5] = target: T3, BSA-coupled (GA)15 DPR protein peptide; assay: indirect ELISA, BSA-coupled peptide coated, antibody titrated [also D00013 FIG. 3D]
Method: as §1, with “(PR)₁₅: H—C(PR)₁₅-OH. DPR protein peptides were then conjugated via a bifunctional linker (SMCC) to bovine serum albumin (BSA). 96-well microplates” for “(PR)₁₅: H—C(PR)₁₅-OH. 96-well microplates”, “coated with BSA-coupled or -uncoupled dipeptide repeat” for “coated with dipeptide repeat”, “and incubated 1 h” for “and incubated for 1 h”, “Diego, USA).” for “Diego, USA). The binding specificity and EC₅₀ of human-derived antibodies for C9orf72 dipeptide repeat protein peptides (GA)₁₅, (GP)₁₅, (GR)₁₅, (PA)₁₅ and (PR)₁₅ were determined by indirect ELISA.”
Target sequence in this assay (P02769 25-607 limits assumed): as above

(PR)15: H-C(PR)15-OH = target: T5, (PR)15: H-C(PR)15-OH; assay: indirect ELISA, uncoupled peptide coated, antibody titrated [also D00013 FIG. 3F]
T5 construct: synthetic, not coupled to BSA; also called poly-PR DPR protein peptide
T5 peptide: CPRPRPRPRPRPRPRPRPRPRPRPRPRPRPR
Method: as §1, with “(PR)₁₅: H—C(PR)₁₅-OH. DPR protein peptides were then conjugated via a bifunctional linker (SMCC) to bovine serum albumin (BSA). 96-well microplates” for “(PR)₁₅: H—C(PR)₁₅-OH. 96-well microplates”, “coated with BSA-coupled or -uncoupled dipeptide repeat” for “coated with dipeptide repeat”, “and incubated 1 h” for “and incubated for 1 h”, “Diego, USA).” for “Diego, USA). The binding specificity and EC₅₀ of human-derived antibodies for C9orf72 dipeptide repeat protein peptides (GA)₁₅, (GP)₁₅, (GR)₁₅, (PA)₁₅ and (PR)₁₅ were determined by indirect ELISA.”

[6] = target: T3, BSA-coupled (GA)15 DPR protein peptide; assay: indirect ELISA, BSA-coupled peptide coated, antibody titrated [also D00012 FIG. 3B]
Method: as §1, with “(PR)₁₅: H—C(PR)₁₅-OH. DPR protein peptides were then conjugated via a bifunctional linker (SMCC) to bovine serum albumin (BSA). 96-well microplates” for “(PR)₁₅: H—C(PR)₁₅-OH. 96-well microplates”, “coated with BSA-coupled or -uncoupled dipeptide repeat” for “coated with dipeptide repeat”, “and incubated 1 h” for “and incubated for 1 h”, “Diego, USA).” for “Diego, USA). The binding specificity and EC₅₀ of human-derived antibodies for C9orf72 dipeptide repeat protein peptides (GA)₁₅, (GP)₁₅, (GR)₁₅, (PA)₁₅ and (PR)₁₅ were determined by indirect ELISA.”
Target sequence in this assay (P02769 25-607 limits assumed, chain 2 of 2, one chain of several): as the sequence (P02769 25-607 limits assumed) above

B1: NI-308.46E9 (antibody, V domains shown)
VH: QVQLQESGPGLVKPSETLSLTCTVSGASISGSTYYWGWIRQPPGKGLEYIGRIYYSGSTYYNPSLKSRATISVDTSKNQLSLTLSSVTAADTAVYYCVRPFYAGSGNSPFDYWGQGTLVTVSS
VL: CEIVLTQSPATVSVSPGERATLSCRASQSVSTNLAWYQQKPGQPPRLLIYGASTRATGIPARFSGSGSGAEFTLTISSLQSEDFVVYYCQQYNNWPPAFGGGTKVEIK
notes: Recombinant complete human IgG1, kappa
- EC50 [1]: > 200 nM

B2: NI-308.5G2 (antibody, V domains shown)
VH: EVQLVQSGADLRNPGASVTVSCTASGYHFADNAINWLRQAPGQRLEWMGWINIYSGNTKYSQNFQGRVTFTRNTSASTAFMHLRSLRSEDTAVYFCARDPDSSGYYLPYFDYWGQGTLVTVSS
VL: DIQLTQSPDSLTLSLGERATINCKSSQSVFYNSNNKNYLAWYQQKPGQPPKLLMYWASTRESGVTDRFSGSGSGTDFTLTITNLQAEDVAVYYCQQFYSSPLTFGGGTKVEIK
notes: as for B1
- EC50 ((GP)15: H-C(GP)15-OH): 0.4 nM

B3: NI-308.45C2 (antibody, V domains shown)
VH: QLQLQESGPGLVKPSQILSLTCAISGDSVFSNSAAWNWIRQSPSRGLEWLGRTYYRSKWDNDYAPSVKSRISINPDTSKNQFSLQLNSVTPEDTAVYYCAREVAYCGGDCYSVSFDYWGQGTLVTVSS
VL: not shown
notes: as for B1
- EC50 [2]: 15.2 nM

B4: NI-308.6B11 (antibody, V domains shown)
VH: EVQLVQSGAEVKRPGASVKVSCKVSGYTLTELSMHWVRQAPGKGLEWMGGFDPEDGETVYAQKFQGRVTMTEDTSTDTAYMELSSLRSEDTALYHCATYGSSWHWNEGNEGSYYFDYWGQGTLVTVSS
VL: CDIQMTQSPSSLSASVGDRVTITCQASQDISIYLNWYQQKPGKAPKLLIYDASNLETGVPSRFSGSGSGTDFTFTISGLQPEDVARYYCQQYDDLPITFGQGTRLEIK
notes: as for B1
- binding result (GR2: H-(GR)2HHHHHH-NH2): no binding (tested: about 4x10^5 pM (last point))

B5: NI-308.15O7 (antibody, V domains shown)
VH: QVQLVESGGGVVQPGRSLRLSCAASGFTFSNHAMHWVRQAPGKGLEWVAVISYDGENTYYADSIEGRFTISRDNFKNTLFLQMYSLTADDTAMYFCARGGRRGHFTSYYLDYWGQGTLVTVSS
VL: CDIQMTQSPSSLSASVGDRVTITCRASQNIDKYLNWYQQIPGKAPKLLIYAASSLHSGVPSRFSGSGSGTDFSLTISSLQPEDFAIYYCQQSYSSFRTFGQGTKLEIK
- EC50 [3]: 0.18 nM
- EC50 [4]: 0.41 nM

B6: NI-308.28G1 (antibody, V domains shown)
VH: QVQLQESGPRLVKPSETLSLTCTVAGGSVNSYYWTWIQQSPGKGLEWLGRIYIAGRTNYNPSLTSRIALSVDTSRNQLSLKLTSVTAADTAIYYCARWGAESGDYYYGVDVWGPGTLVTVSS
VL: EIVMTQSPLSLPVTPGEPASISCKSSEGLLHSNGYTYLDWYLQKPGQAPQLLIFLASNRAAGVPDRFSGSGSGTDFTLKISRVEAEDVGVYYCMQAIQSPWTFGPGTKVEIK
notes: as for B1
- EC50 [5]: 0.66 nM

B7: NI-308.24E11 (antibody, V domains shown)
VH: QVQLQESGPGLVKPSETLSLTCTVSTTSLRSYFWSWIRQPPGKGLEWIGYVYYSGSTIYNPSLKNRVTISIDTSKNQFSLNLRSVTAADTAMYFCARGVPAETDARDFPPYYFDHWGQGTLVTVSS
VL: CDIQLTQSPSSLSASVGNRITFTCQASQDIRYYLNWYQQKPGKAPKLLIYDVSNLDTGVPPRFSGSGSGTNFTFTISSLQPEDIAVYYCQQYEGLPVTFGGGTKVEIK
notes: as for B1
- EC50 ((PR)15: H-C(PR)15-OH): 11.3 nM

B8: NI-308.18F7 (antibody, V domains shown)
VH: QVQLQESGPGLVKPSETLSVTCTVSGGSINDYYWNWIRQPAGKGLEWIGRIYASGTINYNPSLQSRVTMSIDTSKNQFSLDLISVSAADTAVYYCARWGQVVGDYYYGMDVWGQGTTVTVSS
VL: EIVLTQSPLSLSVTPGEPASISCKSSQSLQHTNGYNYLDWYLLKPGQSPQLLIFLTSNRASGVPDRFSGSGSGTNFTLKISRVEAEDVGVYYCMEGIQLWTFGQGTKLEIK
notes: as for B1
- EC50 [6]: 0.11 nM
